Assay [1] addresses T1, MCF-7 세포주의 세포막에 발현된 B7-H3 (UniProt Q5ZPR3 29-534).
T1 construct: whole, on cells; Endogenous B7-H3 of the MCF-7 cell line; also called MCF-7 cell
T1 sequence (looked up): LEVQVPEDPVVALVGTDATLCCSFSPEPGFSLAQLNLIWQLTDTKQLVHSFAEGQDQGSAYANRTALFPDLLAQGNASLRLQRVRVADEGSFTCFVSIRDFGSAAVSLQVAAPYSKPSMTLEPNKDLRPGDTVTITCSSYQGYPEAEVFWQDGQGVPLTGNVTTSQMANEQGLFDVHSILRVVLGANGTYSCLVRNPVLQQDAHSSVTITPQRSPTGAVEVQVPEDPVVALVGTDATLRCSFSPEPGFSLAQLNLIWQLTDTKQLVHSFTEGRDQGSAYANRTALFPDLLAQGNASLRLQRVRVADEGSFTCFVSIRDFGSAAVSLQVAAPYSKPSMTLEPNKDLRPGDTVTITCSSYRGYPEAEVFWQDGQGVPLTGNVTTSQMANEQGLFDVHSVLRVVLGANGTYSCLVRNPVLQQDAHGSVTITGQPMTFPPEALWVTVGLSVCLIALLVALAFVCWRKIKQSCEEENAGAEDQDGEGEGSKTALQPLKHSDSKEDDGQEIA
In words: cell ELISA on fixed MCF-7 cells (표 2).

The next assay concerns the target RKO/B7H3 세포주에 과발현된 B7-H3 (UniProt Q5ZPR3). In words: cell ELISA on fixed RKO/B7H3 cells (표 3).

B1: #2 항체 (B7-H3 항체) (antibody, V domains shown)
VH: EVQLLESGGGLVQPGGSLRLSCAASGFTFSAYYMIWVRQAPGKGLEWVSITNPSGGVTSYAQKFQGRFTISRDNSKNTLYLQMNSLRAEDTAVYYCARVGGRGFDIWGQGTLVTVSS
VL: EIVLTQSPGTLSLSPGERATLSCHASQGISNYVAWYQQKPGQAPRLLIYDASNRATGIPDRFSGSGSGTDFTLTISHLEPEDFAVYYCQQSYSTLLTFGQGTKVEIK
For B1, the concentration for a half-maximal effect (EC50) in assay [1] worked out at 0.061 nM; in the assay with RKO/B7H3 세포주에 과발현된 B7-H3, 0.036 nM.

B2: #3 항체 (B7-H3 항체) (antibody, V domains shown)
VH: EVQLLESGGGLVQPGGSLRLSCAASGFTFSTYYMTWVRQAPGKGLEWVSIINPRGGSTSYAEKFQGRFTISRDNSKNTLYLQMNSLRAEDTAVYYCARWNLGMDVWGQGTLVTVSS
VL: EIVLTQSPGTLSLSPGERATLSCRVSQSISSYLNWYQQKPGQAPRLLIYDASHRATGIPDRFSGSGSGTDFTLTISRLEPEDFAVYYCQQYYAPSVTFGQGTKVEIK
Take B2: the results for the concentration giving a half-maximal response (EC50) (in assay [1]; with RKO/B7H3 세포주에 과발현된 B7-H3) were 0.197 nM and 0.065 nM, respectively.

B3: #8 항체 (B7-H3 항체) (antibody, V domains shown)
VH: EVQLLESGGGLVQPGSSLRLSCAASGFTFSSYWISWVRQAPGKGLEWVSEISPSGNTNYNPSLKSRFTISRDNSKNTLYLQMNSLRAEDTAVYYCAREVGDLLDYWGQGTLVTVSS
VL: QSVLTQPPSASGTPGQRVTISCSGSNIGNNYVSWYQQLPGTAPKLLIYQDSKRPSGVPDRFSGSKSGTSASLAISGLRSEDEADYYCLVWDRSSDHFVFGGGTKLTVL
Regarding B3, the EC50 in assay [1] was 0.159 nM; with RKO/B7H3 세포주에 과발현된 B7-H3, 0.06 nM.

B4: #7 항체 (B7-H3 항체) (antibody, V domains shown)
VH: EVQLLESGGGLVQPGGSLRLSCAASGFTFSNFWIGWVRQAPGKGLEWVSWINPPGSITSYADSVKGRFTISRDNSKDTLYLQMNSLRAEDTAVYYCAREVGDVLDYWGQGTLVTVSS
VL: QSVLTQPPSASGTPGQRVTISCTGTSSDIGRYNYVSWYQQLPGTAPKLLIYRNTQRPSGVPDRFSGSKSGTSASLAISGLRSEDEADYYCGTWDSSLNAYVFGGGTKLTVL
On to B4, for which the EC50 came to 1.01 nM in assay [1] and 0.187 nM with RKO/B7H3 세포주에 과발현된 B7-H3.

B5: #1 항체 (B7-H3 항체) (antibody, V domains shown)
VH: EVQLLESGGGLVQPGGSLRLSCAASGFTFSSYAMSWVRQAPGKGLEWVSTITGSGGSTYYADSVKGRFTISRDNSKNTLYLQMNSLRAEDTAVYYCARYKSGAFDIWGQGTLVTVSS
VL: EIVLTQSPGTLSLSPGERATLSCRASQGIGNYLGWYQQKPGQAPRLLIYTASSLQSGIPDRFSGSGSGTDFTLTISRLEPEDFAVYYCQQGYSTPSWTFGQGTKVEIK
As for B5, the half-maximal effective concentration (EC50) was found to be 0.605 nM in assay [1] and 0.015 nM in the assay with RKO/B7H3 세포주에 과발현된 B7-H3.

B6: #5 항체 (B7-H3 항체) (antibody, V domains shown)
VH: EVQLLESGGGLVQPGGSLRLSCAASGFTFSTYAMSWVRQAPGKGLEWVSAISGSGGSTLYADSVKGRFTISRDNSKNTLYLQMNSLRAEDTAVYYCARGGSATWAFDLWGQGTLVTVSS
VL: QSVLTQPPSASGTPGQRVTISCSGSSSNIGSNYVYWYQQLPGTAPKLLIYRNNQRPSGVPDRFSGSKSGTSASLAISGLRSEDEADYYCGTWDSSLSGVVFGGGTKLTVL
As for B6, the results for the EC50 (in assay [1]; with RKO/B7H3 세포주에 과발현된 B7-H3) were 1.74 nM and 0.091 nM, respectively.

B7: #6 항체 (B7-H3 항체) (antibody, V domains shown)
VH: EVQLLESGGGLVQPGGSLRLSCAASGFTFSTYAISWVRQAPGKGLEWVSSIYYSGYTHYNPSLESRFTISRDNSKNTLYLQMNSLRAEDTAVYYCARGYSGWMDVWGQGTLVTVSS
VL: QSVLTQPPSASGTPGQRVTISCGGNNIGSKSVHWYQQLPGTAPKLLIYDNNKRPSGVPNRFSGSKSGTSASLAISGLRSEDEADYYCAAWDDSLNVPVFGGGTKLTVL
Consider B7, for which the figures for the EC50 (in assay [1]; with RKO/B7H3 세포주에 과발현된 B7-H3) were 0.234 nM and 0.065 nM, respectively.

B8: #9 항체 (B7-H3 항체) (antibody, V domains shown)
VH: EVQLLESGGGLVQPGGSLRLSCAASGFTFSSYAMNWVRQAPGKGLEWVSTISGSGGQTYYADSVKGRFTISRDNSKNTLYLQMNSLRAEDTAVYYCARWRSIWAFDYWGQGTLVTVSS
VL: QSVLTQPPSASGTPGQRVTISCSDNNIGSKSVHWYQQLPGTAPKLLIYDNNKRPSGVPDRFSGSKSGTSASLAISGLRSEDEADYYCGTWDDSLSGPVFGGGTKLTVL
With B8, the EC50 stood at 0.322 nM in assay [1] and 0.05 nM with RKO/B7H3 세포주에 과발현된 B7-H3.

B9: #4 항체 (B7-H3 항체) (antibody, V domains shown)
VH: EVQLLESGGGLVQPGGSLRLSCAASGFTFSSYGMHWVRQAPGKGLEWVSAISGSGTSIYYANSVKSRFTISRDNSKNTLYLQMNSLRAEDTAVYYCARGAGWFDYWGQGTLVTVSS
VL: QSVLTQPPSASGTPGQRVTISCSGSTSNIGSNTVNWYQQLPGTAPKLLIYGKNIRPNGVPDRFSGSKSGTSASLAISGLHSEDEADYYCQSYDSSLSGWVFGGGTKLTVL
Consider B9, for which the EC50 stood at 0.502 nM in assay [1] and 0.042 nM with RKO/B7H3 세포주에 과발현된 B7-H3.

(Values after patent KR20220134462A (dated 2022).)
